The results in this text go back to US8367612B2, “Compositions containing, methods involving, and uses of non-natural amino acids and polypeptides” (Ambrx, Inc., priority 2004, dated 2013).

The data set can be described thus: Pharmacokinetic studies, single s.c. dose in rats, plasma concentration by growth hormone ELISA. The class given is in vivo. Conditions: single-dose 1 mg/kg bolus s.c., normal male Sprague-Dawley rats; average. As for the experimental part: Pharmacokinetic properties of PEG-modified growth hormone compounds were compared to each other and to nonPEGylated growth hormone in male Sprague-Dawley rats (261-425 g) obtained from Charles River Laboratories. Catheters were surgically installed into the carotid artery for blood collection. Following successful catheter installation, animals were assigned to treatment groups (three to six per group) prior to dosing. Animals were dosed subcutaneously with 1 mg/kg of compound in a dose volume of 0.41-0.55 ml/kg. Blood samples were collected at various time points via the indwelling catheter and into EDTA-coated microfuge tubes. Plasma was collected after centrifugation, and stored at −80° C. until analysis. Compound concentrations were measured using antibody sandwich growth hormone ELISA kits from either BioSource International (Camarillo, Calif.) or Diagnostic Systems Laboratories (Webster, Tex.). Concentrations were calculated using standards corresponding to the analog that was dosed. Pharmacokinetic parameters were estimated using the modeling program WinNonlin (Pharsight, version 4.1). Noncompartmental analysis with linear-up/log-down trapezoidal integration was used, and concentration data was uniformly weighted.
Plasma concentrations were obtained at regular intervals following a single subcutaneous dose in rats. […] Plasma samples were taken over the regular time intervals and assayed for injected compound as described. […] Concentration vs time curves were evaluated by noncompartmental analysis (Pharsight, version 4.1). Values shown are averages (+/− standard deviation). Cmax: maximum concentration; terminal t1/2: terminal half-life; AUC0→inf: area under the concentration-time curve extrapolated to infinity; MRT: mean residence time; Cl/f: apparent total, plasma clearance; Vz/f: apparent volume of distribution during terminal phase.
Regarding “30KPEG-pAF35(his)hGH: "hGH polypeptides comprising p-acetyl-phenylalanine covalently-linked to 30 kDa PEG at positions 35 and 92" (position 35, His-tagged)”, the “AUC 0->inf” value is recorded as 39,918 ng × hr/ml, the Cl/f was found to be 35 mL/h/kg, the Cmax was 1,885 ng/ml and the MRT is reported as 19.16 h. The “Terminal t1/2” value stood at 4.85 h.
Consider “30KPEG-pAF131(his)hGH: "His-tagged hGH polypeptide comprising non-natural amino acid p-acetyl-phenylalanine covalently linked to 30 kDa PEG at each of six different positions"”, for which the “AUC 0->inf” value was 6,978 ng × hr/ml, the Cl/f was found to be 161 mL/h/kg, the Cmax worked out at 497 ng/mL and the mean residence time MRT stood at 14.28 h. In addition, the “Terminal t1/2” value is 4.41 h.
The matching figures for “30KPEG-pAF134(his)hGH: "His-tagged hGH polypeptide comprising non-natural amino acid p-acetyl-phenylalanine covalently linked to 30 kDa PEG at each of six different positions"”: 7,304 ng × hr/ml, 151 mL/h/kg, 566 ng/mL, 12.15 h and 4.36 h.
Turning to “30KPEG-pAF143(his)hGH: "His-tagged hGH polypeptide comprising non-natural amino acid p-acetyl-phenylalanine covalently linked to 30 kDa PEG at each of six different positions"”, the “AUC 0->inf” value is listed as 17,494 ng × hr/ml, the Cl/f stood at 59 mL/h/kg, the peak concentration (Cmax) was 803 ng/mL and the MRT is recorded as 18.83 h. Also, the “Terminal t1/2” value was found to be 6.02 h.
On to “30KPEG-pAF145(his)hGH: "His-tagged hGH polypeptide comprising non-natural amino acid p-acetyl-phenylalanine covalently linked to 30 kDa PEG at each of six different positions"”, for which the “AUC 0->inf” value is 13,162 ng × hr/ml, the Cl/f is 88 mL/h/kg, the Cmax came out at 634 ng/mL and the MRT is recorded as 17.82 h. Also, the “Terminal t1/2” value is on record as 5.87 h.

One may read the Cmax as the maximum level reached in the sampled fluid or tissue. In general, MRT refers to the average time that molecules of a dose stay in the body.
